According to the supplement of paper PMC10567573:

B1: RSPH3 (parent)
chain: LELQRQREARKRALARKQAQEQLR
B2: BCL2L13 (parent)
chain: QSLDQEILLKVKTEIEEELKSLDK

Variants of: B1
Experiment: protein stability index of a GFP-peptide fusion (GPS, HEK-293T) (PSI 1-6); higher = more stable
Conditions: c terminus: a fixed tail appended
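Note: lentivirally expressed fusions sorted by FACS into six bins by GFP to DsRed ratio, PSI derived from sequencing read proportions per bin multiplied by bin number.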

Protein stability index: each site, then its substitutions
E8: I 2.38 | P 3.67 | C 3.64 | S 3.62 | V 3.39 | F 3.24 | M 3.43 | N 3.44 | K 3.95 | H 3.83

Variants of: B2
Experiment: as above
Conditions: c terminus: a fixed tail appended

Protein stability index of substitutions, site by site:
E18: W 2.8 | K 3.74 | Q 3.88 | H 4.05 | C 3.41 | S 4.61 | A 4.02 | G 4.62 | F 3.8 | L 3.06 | Y 2.17 | P 4.32 | I 2.58 | D 5.58 | R 4.16 | N 4.4 | T 3.92 | M 1.98 | V 3.69
E16: W 3.66 | S 4.93 | L 3.23 | V 3.69 | R 4.79 | N 5.02 | P 4.69 | Q 5.04 | Y 3.87 | T 4.72 | M 3.09
K24: R 4.53 | V 4.71 | H 4.36 | Q 4.73 | F 4.89 | E 5.74 | D 5.27 | C 4.53 | P 5.06 | L 4.71 | S 4.9 | A 5.1 | I 4.58 | N 5.04 | T 4.79 | Y 4.25 | W 4.94 | M 3.67 | G 5.12
L22: K 5.47 | C 5.34 | Q 5.3 | T 5.13 | H 5.47 | W 4.34 | P 5.67 | Y 5.02 | N 5.16 | R 4.67 | I 4.49 | S 5.41 | E 4.58 | M 5.12 | A 4.81 | D 5.74 | F 5.37 | V 5.2
K20: E 5.67 | S 5.33 | D 4.86 | R 5.18 | N 5.17 | Q 4.63 | G 5.03 | H 4.48 | Y 4.3 | W 4.91 | V 5.11 | T 5.09 | I 4.56 | C 4.9 | F 4.2 | M 4.48 | A 5.08 | P 5.35 | L 4.56
D23: F 2.14 | K 4.33 | T 4.47 | I 3.3 | H 3.7 | M 2.33 | N 4.04 | L 2.2 | R 3.78 | P 4.85 | G 4.41 | Q 4.48 | E 4.29 | A 2.63 | C 3.42
L19: N 5 | W 4.46 | R 5.57 | V 5.63 | C 5.02 | F 4.76 | S 5 | H 4.97 | E 5.71 | Q 5.49 | A 5.68 | G 5.03 | P 5.64 | I 4.65 | T 5.48 | K 5.19 | M 5.4 | Y 5.05 | D 5.77
E17: P 4.95 | L 3.72 | Y 3.67 | C 3.87 | F 3.54 | R 3.99 | M 4.08 | Q 4.56 | V 2.69 | W 3.51 | H 4.51 | D 5.13 | N 4.11 | A 4.57 | S 4.81 | G 4.93 | T 4.1 | I 3.49 | K 4.41
S21: K 4.83 | N 5.38 | R 4.42 | F 4.72 | I 4.77 | P 4.97 | A 4.83 | H 4.44 | T 4.59 | D 5.47 | V 4.73 | L 4.46 | Y 4.25 | Q 4.86 | W 3.57 | G 5.35 | C 4.98 | M 4.67
